Measurements from the RNAGym collection of RNA variant scans (doi:10.1073/pnas.2313332121).

B1: TPR t1 (parent)
chain: GACCAAUCUGCCCUCAGAGCUCGAGAACAUCUUCGGAUGCAGAGGAGGCAGGCUUCGGUGGCGCGAUAGCGCCAACGUCCUCAACCUCCAAUGCAUCCCACCACAUGAUGAUGCCUGAAGAGCCUUGGUUUUUUG

Variants of: B1
Assay: polymerase ribozyme fitness, log enrichment relative to wild type (log ratio); higher = more active; in vitro selection for triplet polymerase activity
Method in brief: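 To select mutant libraries of each subunit of a heterodimeric triplet polymerase ribozyme, built by PCR and transcribed, each was annealed with a biotinylated primer, partner subunit and triplets, then incubated frozen at −7 °C. Extended constructs were gel-excised, captured on streptavidin beads and amplified by RT-PCR, in one round carried out in triplicate. Illumina sequencing of input and output libraries kept genotypes with ≥10 input reads and ≥1 read per output. Fitness is the base-2 logarithm of genotype enrichment relative to wild-type enrichment, from inverse-variance-weighted replicate averages.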

Row | Variant | polymerase ribozyme fitness (log ratio)
1 | C4A C13U C124A | 0.115
2 | A6G C15U C89U U96A | -0.964
3 | C89G G113A G127U | -4.45
4 | U9A C98A C104U | -3.44
5 | A26U G48C | -3.53
6 | A6U A90U | -0.93
7 | G51U C53U U112A A119G | -2.63
8 | C31A G120C | -4.32
9 | G77A C97U | -0.317
10 | A6C G57C C79A C85U | -2.83
11 | A37G C49G U81G | -2.07
12 | U106C | -0.282
13 | C8U A27U C34U G48U G60A C98U U112C G117U | -7.25
14 | C3U C70U | -0.813
15 | C12A U109A | -5.14
16 | G17C G61U C114A | -5.45
17 | A5C C13A C70U U87A | -3.43
18 | G48A U59A C79U U125G U130G | -1.48
19 | G45U C64A A111U U133A | -5.34
20 | A41U A111G U112A A118U | -5.06
21 | G69U C124U | 2.41

Row | Variant | polymerase ribozyme fitness (log ratio)
22 | C76U U87A G110A U130G | -2.07
23 | G10C U54C G93C C102A | -5.34
24 | C114A C123U G128U | -4.41
25 | G47U C102U | -3.31
26 | G25A U33A G61A G77U C115A | -6.46
27 | C31U A84C C97A A121U | -6.87
28 | G69U G120U U132C | 1.03
29 | C12U A18C C70U A75U U125G | -5.05
30 | A18U C56U C64A G69A U112C U129A | -5.64
31 | C34A G117C | -4.31
32 | G17U U87A | -2.81
33 | C15A A46U G77U | -2.81
34 | G57U C64U U78G C88A C98U U131C | -2.15
35 | C12U U87C A103U G120A | -1.81
36 | G10U C13G G120C | 1.66
37 | G52A C123A | -0.148
38 | A6G A29G C72G C82G C89A G120C | -4.07
39 | C4U G48A G71U U106A | -1.2
40 | A46U G63U A83U G110U | -6.56
41 | G39A G63C | -1.48
42 | A66G C76G | -1.2

Row | Variant | polymerase ribozyme fitness (log ratio)
43 | C3U A84G G120A | -0.608
44 | U78A A95U U112G U133A | 0.61
45 | A18U C40U C94U | -3.46
46 | A26U G63A | -5.09
47 | A27U C80U | -3.34
48 | A27U G117U | -4.76
49 | A37U C73A U87C | 0.034
50 | C8G A43G G69C | -3.18
51 | C12G C22A C49A U55A C56U C62G G93U | -7.34
52 | A100U U116C G128U U130A | -5.48
53 | C22G C28U A37U G48A G110C | -3.85
54 | C72A C85U C104U | 0.563
55 | U9A A16U A43U A91G | -0.987
56 | C12A U32C G45A U132A | -1.76
57 | C62G U116A | -4.13
58 | G47U C80A | -5.8
59 | A84U C101G U125G | -2.42
60 | A29U C34U G47U C53U | -6.51
61 | A18U C62U | -2.48
62 | G71U A119U | -0.434
63 | C8G G48A U96G U129A | -0.823

Row | Variant | polymerase ribozyme fitness (log ratio)
64 | A26U G60A | -3.74
65 | G47U G57A G69U | -1.68
66 | U7A G35A G71A G77C C124A | -5.19
67 | C13U C115U G117C | -6.41
68 | C28U C64U | -2.29
69 | A74U G128C | -2.66
70 | C49G C56G A91C | -2.49
71 | G48A C79A C97U | -2.68
72 | C13G G63U C72U | -2.72
73 | A29C G45A C115U | -4.57
74 | C8A C56A C72G | -1.07
75 | U9G C13U C104A | -1.55
76 | A83G G113U | -3.23
77 | U21G C72U A75U | -1.05
78 | C4A C11G A16G G36C C56U G113U | -2.81
79 | C56G A68U | -6.1
80 | A5C C11G A41C G71C C104U | -2.45
81 | G63A C123A | -0.259
82 | C12U U32C C56G | -0.144
83 | C40U C70A C102A C124A | -3.93
